Test results: the supplement of paper PMC10724198
± gives the standard deviation of the averaged measurements.

test system: Saccharomyces cerevisiae; experiment: protein stability index of tFT-peptide fusion (C-terminal peptide) (PSI (0-1 scale)); higher = more stable (slower turnover); conditions: genetic background: wild type; temperature: 30 C
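Further: PSI is a weighted mean of sequencing reads over stability bins, variants kept only with over 10 reads, mCherry proximal and sfGFP distal, peptide attached via GGGS linker.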

SDIHSSMTSGSF and SDLKARYHCGRD are within error of each other in protein stability index: 0.669 ± 0.014 for the first, 0.652 ± 0.075 for the second.

First: SDPASVIPMELE
Second: SDRLLYLGNYDV
The protein stability index of the first is lower: 0.673 ± 0.052 for the first, 0.773 ± 0.0011 for the second.

SDTPTHVLGPPY and SEKKKKNKKNKK are within error of each other in protein stability index: 0.716 ± 0.038 for the first, 0.714 ± 0.2 for the second.

SELTCSSINSAT and SENVSATLNNQD are within error of each other in protein stability index: 0.673 ± 0.024 for the first, 0.708 ± 0.028 for the second.

SEPCSASLSVSL and SEPPFSFLNVSP are within error of each other in protein stability index: 0.64 ± 0.045 for the first, 0.676 ± 0.018 for the second.

SEVPCENSRRVV and SFFFFSPFSRLS are within error of each other in protein stability index: 0.667 ± 0.08 for the first, 0.693 ± 0.032 for the second.

SFFFLVPFSVFL and SFFLMTPPPSLR are within error of each other in protein stability index: 0.586 ± 0.1 for the first, 0.698 ± 0.12 for the second.

SFGLAPLSSFFC and SFGLSYYFRNSL are within error of each other in protein stability index: 0.705 ± 0.078 for the first, 0.731 ± 0.066 for the second.

SFLHSRAELPAG and SFLIADLPSTPP are within error of each other in protein stability index: 0.604 ± 0.065 for the first, 0.763 ± 0.13 for the second.

Going from SFLSPPSPPHSP to SFPLPPLSPPSR, the protein stability index rises from 0.639 ± 0.01 to 0.73 ± 0.048.

SFPPPFLISLSP and SFPPPHPPPPLP are within error of each other in protein stability index: 0.676 ± 0.042 for the first, 0.6998 ± 0.0045 for the second.

SFPPSPLPPPPR and SFRVLCHGAQLL are within error of each other in protein stability index: 0.586 ± 0.018 for the first, 0.634 ± 0.065 for the second.

Going from SFSRFFAIRPSF to SFTSGFTDAGNI, the protein stability index falls from 0.723 ± 0.091 to 0.6008 ± 0.0047.

SFYSAALSCVFI and SGACRLEESGKV are within error of each other in protein stability index: 0.737 ± 0.15 for the first, 0.755 ± 0.061 for the second.

SGGCDNGRMRWV and SGGGGVLGWRGG are the same in protein stability index: 0.682 ± 0.07 for the first, 0.682 ± 0.022 for the second.

SGGGVGGQVAVG and SGGPDCLSMSGL are within error of each other in protein stability index: 0.715 ± 0.087 for the first, 0.694 ± 0.025 for the second.

SGGRSPYLLVGL and SGGRVSGLVGEE are within error of each other in protein stability index: 0.725 ± 0.053 for the first, 0.673 ± 0.031 for the second.

SGGSALGCGRAA and SGGVWWGRGRVS are within error of each other in protein stability index: 0.658 ± 0.063 for the first, 0.727 ± 0.058 for the second.

SGGWGGGDCVGA and SGGWLAACYAVY are within error of each other in protein stability index: 0.69 ± 0.014 for the first, 0.668 ± 0.032 for the second.

SGKFVGCSFWMG and SGLGRPHLRCLD are within error of each other in protein stability index: 0.62 ± 0.016 for the first, 0.672 ± 0.042 for the second.

Going from SGLPPYTPPLSF to SGLRFLSWSVHV, the protein stability index falls from 0.80558 ± 0.00056 to 0.6114 ± 0.0051.

SGLSPPSRVCGY and SGLWAGVDGRSS are within error of each other in protein stability index: 0.651 ± 0.068 for the first, 0.6855 ± 0.0021 for the second.

SGMGAIADENKE and SGNDIQSLNIVI are within error of each other in protein stability index: 0.635 ± 0.051 for the first, 0.754 ± 0.081 for the second.

SGPSWSGGGWGR and SGRSRVAGVERR are within error of each other in protein stability index: 0.648 ± 0.021 for the first, 0.708 ± 0.062 for the second.

First: SGSITAGLVRNV
Second: SGSSRLRTSPTG
The protein stability index of the first is lower: 0.6152 ± 0.0051 for the first, 0.814 ± 0.056 for the second.

SGTGRINWEGFL and SGVLRLSGTGAV are within error of each other in protein stability index: 0.709 ± 0.03 for the first, 0.688 ± 0.0018 for the second.

SGVSCPGRVDGG and SGVSRSGREFRN are within error of each other in protein stability index: 0.68 ± 0.0085 for the first, 0.634 ± 0.088 for the second.

SGWRGVVGRGGR and SHDLASRQSAFR are within error of each other in protein stability index: 0.625 ± 0.027 for the first, 0.648 ± 0.059 for the second.

SHFHSRDARRSP and SHKPDLTNVRFV are within error of each other in protein stability index: 0.673 ± 0.0068 for the first, 0.707 ± 0.044 for the second.

SHLAHLHPHIAR and SHLGTITPSSLL are within error of each other in protein stability index: 0.675 ± 0.026 for the first, 0.662 ± 0.082 for the second.

SHPWLLDCVTTF and SHRSALLPFLPP are within error of each other in protein stability index: 0.706 ± 0.044 for the first, 0.646 ± 0.046 for the second.

SHSPAPSFPYFP and SHSRRRTPSVTP are within error of each other in protein stability index: 0.7367 ± 0.0026 for the first, 0.713 ± 0.083 for the second.

SHTRPRPPLHLP and SIDKINKLTPDV are within error of each other in protein stability index: 0.68 ± 0.038 for the first, 0.648 ± 0.052 for the second.

SIIATHNNNSIW and SILRRFSPPPLL are within error of each other in protein stability index: 0.694 ± 0.014 for the first, 0.75 ± 0.051 for the second.

SISLVLPASCIT and SISQSSSLGLED are within error of each other in protein stability index: 0.693 ± 0.021 for the first, 0.677 ± 0.046 for the second.

SISSFLPRRLPF and SIVRWLTSSLIH are within error of each other in protein stability index: 0.662 ± 0.033 for the first, 0.787 ± 0.17 for the second.

SIVSTPGATACL and SIYLLQRRQFDP are within error of each other in protein stability index: 0.67281 ± 0.00029 for the first, 0.677 ± 0.048 for the second.

SKGSVFGNMGYR and SKIQDHLNTAPE are within error of each other in protein stability index: 0.6741 ± 0.0063 for the first, 0.654 ± 0.058 for the second.

Compared with SKKLSMNIIITN, SKKRHSKNRKSV is higher in protein stability index: 0.653 ± 0.0047 for the first, 0.71 ± 0.032 for the second.

Compared with SKNEIKNYNTKI, SKNQEDEYTIHE is higher in protein stability index: 0.642 ± 0.031 for the first, 0.7 ± 0.024 for the second.

SKNQQKKCQMIT and SKRIKIEFYVNQ are within error of each other in protein stability index: 0.534 ± 0.038 for the first, 0.688 ± 0.12 for the second.

SKSLRAAQGGRT and SKYVVQSENITG are within error of each other in protein stability index: 0.684 ± 0.016 for the first, 0.699 ± 0.015 for the second.

SLALPLLPPSSP and SLALSPQFLSFP are within error of each other in protein stability index: 0.739 ± 0.05 for the first, 0.749 ± 0.081 for the second.

SLAPSARLYPYH and SLARGFVVPMWP are within error of each other in protein stability index: 0.768 ± 0.03 for the first, 0.707 ± 0.045 for the second.

SLCPVTPPSVGF and SLDFRSARFSLG are within error of each other in protein stability index: 0.656 ± 0.02 for the first, 0.65 ± 0.014 for the second.

First: SLDQGRLRRLVG
Second: SLEALARDRFCT
The protein stability index of the first is lower: 0.641 ± 0.061 for the first, 0.724 ± 0.014 for the second.

First: SLESRGLRSRHY
Second: SLFLLFRSRACS
The protein stability index of the first is higher: 0.633 ± 0.073 for the first, 0.539 ± 0.011 for the second.

SLFMRLPLQSSF and SLGFMALFYLPL are within error of each other in protein stability index: 0.65 ± 0.041 for the first, 0.649 ± 0.016 for the second.

SLGWVRDRICSD and SLISRAFYSFSP are within error of each other in protein stability index: 0.75 ± 0.17 for the first, 0.699 ± 0.04 for the second.

SLLFPPSPPPPA and SLLLFPCPWFGL are within error of each other in protein stability index: 0.673 ± 0.011 for the first, 0.677 ± 0.019 for the second.

SLLLPPRPPPRV and SLLPPSPPPSRL are within error of each other in protein stability index: 0.744 ± 0.055 for the first, 0.724 ± 0.066 for the second.

SLLPSSFRAPAP and SLLQSLPSPPPP are within error of each other in protein stability index: 0.652 ± 0.045 for the first, 0.639 ± 0.011 for the second.

Going from SLNQWTGTTLRQ to SLPAFLPAPPLF, the protein stability index rises from 0.66 ± 0.02 to 0.6962 ± 0.002.

Compared with SLPAPPPPPPPH, SLPDTSPSLHPP is lower in protein stability index: 0.727 ± 0.034 for the first, 0.59 ± 0.011 for the second.

SLPPLASPPASI and SLPPPLPRRPPP are within error of each other in protein stability index: 0.72 ± 0.1 for the first, 0.729 ± 0.13 for the second.

Compared with SLPPRPCPSHLH, SLPRWLPPPLQS is lower in protein stability index: 0.786 ± 0.081 for the first, 0.687 ± 0.0095 for the second.

Going from SLPSLLFLISLP to SLPSRPLSFYSP, the protein stability index rises from 0.543 ± 0.054 to 0.715 ± 0.068.

SLPWVLLPTGPY and SLQTHCHKGPLS are within error of each other in protein stability index: 0.751 ± 0.075 for the first, 0.718 ± 0.0099 for the second.

SLRLMTFPPLLL and SLRPPLRPPTVV are within error of each other in protein stability index: 0.68 ± 0.08 for the first, 0.601 ± 0.017 for the second.

Compared with SLSAPPPRSTSP, SLSFSLPLFSLG is higher in protein stability index: 0.597 ± 0.021 for the first, 0.681 ± 0.013 for the second.

SLSPARKDSSLP and SLSPPSPTPSHS are within error of each other in protein stability index: 0.683 ± 0.15 for the first, 0.7347 ± 0.0043 for the second.

SLSSAALFHGPF and SLSSPILYLFAS are within error of each other in protein stability index: 0.598 ± 0.065 for the first, 0.65 ± 0.013 for the second.

Compared with SLTCRKQTVRVI, SLVSYSPPLPPP is higher in protein stability index: 0.53 ± 0.012 for the first, 0.681 ± 0.034 for the second.

First: SLWGFWRVVGRR
Second: SLYRSAARHLGI
The protein stability index of the first is lower: 0.594 ± 0.052 for the first, 0.754 ± 0.037 for the second.

SMFGSVGLMPCG and SMLLFFLPSSSS are within error of each other in protein stability index: 0.656 ± 0.02 for the first, 0.641 ± 0.046 for the second.

Compared with SMLVPLPPFSSA, SMRLELAALLVI is lower in protein stability index: 0.694 ± 0.0097 for the first, 0.546 ± 0.033 for the second.

Compared with SMVLRTIKKRNI, SNKKRTRNEGKD is lower in protein stability index: 0.661 ± 0.015 for the first, 0.6109 ± 0.0047 for the second.

Going from SNNKSIRKGVSI to SNQKGQIYYEPS, the protein stability index falls from 0.79002 ± 6.2e-05 to 0.706 ± 0.08.

SNQRQRETKREE and SNRSVININIRI are within error of each other in protein stability index: 0.677 ± 0.039 for the first, 0.616 ± 0.058 for the second.

Going from SPACFKIFCRCF to SPAFSLIPCPLF, the protein stability index rises from 0.523 ± 0.046 to 0.742 ± 0.059.

SPATDRTSLFES and SPCPPPPAHPPR are within error of each other in protein stability index: 0.729 ± 0.022 for the first, 0.728 ± 0.026 for the second.

First: SPDLTRPPLPPP
Second: SPFPFLLTAPLA
The protein stability index of the first is higher: 0.693 ± 0.015 for the first, 0.538 ± 0.0094 for the second.

SPGPPLLLPPPL and SPGRSSTLPPVF are within error of each other in protein stability index: 0.688 ± 0.085 for the first, 0.7101 ± 0.00072 for the second.

First: SPGRVSRGNASV
Second: SPGSSIFLYFFT
The protein stability index of the first is lower: 0.645 ± 0.017 for the first, 0.729 ± 0.022 for the second.

SPHTPDPTTTPH and SPLETLLCTPSI are within error of each other in protein stability index: 0.648 ± 0.097 for the first, 0.675 ± 0.019 for the second.

Going from SPLPPPPHPSPF to SPLRPPSLPAPG, the protein stability index rises from 0.505 ± 0.017 to 0.653 ± 0.015.

SPLRSCPADPSQ and SPLSLPSIPFGV are within error of each other in protein stability index: 0.763 ± 0.082 for the first, 0.672 ± 0.075 for the second.

First: SPLTYTAPRCPR
Second: SPLVSSPPPALL
The protein stability index of the first is higher: 0.82 ± 0.088 for the first, 0.643 ± 0.081 for the second.

Going from SPPALPRPPRRP to SPPHPRPPTLRT, the protein stability index falls from 0.708 ± 0.044 to 0.609 ± 0.013.

SPPLSLPFFPRP and SPPPAPVPAPPR are within error of each other in protein stability index: 0.641 ± 0.019 for the first, 0.678 ± 0.048 for the second.
